Results taken from publication PMC8824505, “Complexes of Ghrelin GHS-R1a, GHS-R1b, and Dopamine D1 Receptors Localized in the Ventral Tegmental Area as Main Mediators of the Dopaminergic Effects of Ghrelin” (The Journal of Neuroscience, 2022).

Target: dopamine D1 receptor (D1R) (UniProt P21728 1-446)
Test: cell-based or functional assay

Chain of dopamine D1 receptor (D1R) (P21728 whole entry): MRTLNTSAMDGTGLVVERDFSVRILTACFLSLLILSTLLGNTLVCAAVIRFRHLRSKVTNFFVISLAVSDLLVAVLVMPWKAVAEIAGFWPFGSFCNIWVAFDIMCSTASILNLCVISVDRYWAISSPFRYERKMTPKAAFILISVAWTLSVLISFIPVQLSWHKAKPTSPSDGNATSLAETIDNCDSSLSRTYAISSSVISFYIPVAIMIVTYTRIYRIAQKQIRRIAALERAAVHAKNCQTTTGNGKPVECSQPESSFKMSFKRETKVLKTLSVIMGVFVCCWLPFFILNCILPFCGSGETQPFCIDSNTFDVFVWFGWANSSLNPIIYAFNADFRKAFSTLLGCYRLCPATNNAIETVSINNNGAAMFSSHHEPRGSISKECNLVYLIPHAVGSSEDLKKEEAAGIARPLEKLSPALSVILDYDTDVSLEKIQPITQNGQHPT

B1: GHS-R1a fused to GFP2 (GHS-R1a-GFP2) (receptor, human, UniProt Q92847-1 1-366, looked up)
chain: MWNATPSEEPGFNLTLADLDWDASPGNDSLGDELLQLFPAPLLAGVTATCVALFVVGIAGNLLTMLVVSRFRELRTTTNLYLSSMAFSDLLIFLCMPLDLVRLWQYRPWNFGDLLCKLFQFVSESCTYATVLTITALSVERYFAICFPLRAKVVVTKGRVKLVIFVIWAVAFCSAGPIFVLVGVEHENGTDPWDTNECRPTEFAVRSGLLTVMVWVSSIFFFLPVFCLTVLYSLIGRKLWRRRRGDAVVGASLRDQNHKQTVKMLAVVVFAFILCWLPFHVGRYLFSKSFEPGSLEIAQISQYCNLVSFVLFYLSAAINPILYNIMSKKYRVAVFRLLGFEPFSQRKLSTLKDESSRAWTESSINT
B1 was tested, and the “ghrelin-induced cAMP accumulation in HEK293T cells with GHS-R1a, D1R and increasing GHS-R1b cDNA; increase versus control at GHS-R1b/GHS-R1a cDNA ratios of 0, 0.3, 1 and 2 (26%, 72%, 46% and 15%)” value was 72 % increase versus control.
